The values that follow come from paper PMC4043820.

Data set [1] has as its target OsWRKY53SA S43A;S72A;S77A;S89A;S96A;S108A (Oryza sativa (rice)) (UniProt A7BEY7). As to the kind of experiment: EMSA. To be noted: 12 mM HEPES-KOH pH 8.0, 60 mM KCl, 4 mM MgCl2, 1 mM EDTA, 12% glycerol, 1 mM DTT, 2.5 mM PMSF, 0.1 ug protein in 20 ul, 20 min on ice; 6% PAGE in 1x TBE at …. A general note: A gel shift assay detects complexes by their altered migration in electrophoresis.

The target of data set [2] is OsWRKY53SD S43D;S72D;S77D;S89D;S96D;S108D (Oryza sativa (rice)) (UniProt A7BEY7). As to the kind of experiment: EMSA. Conditions: 12 mM HEPES-KOH pH 8.0, 60 mM KCl, 4 mM MgCl2, 1 mM EDTA, 12% glycerol, 1 mM DTT, 2.5 mM PMSF, 0.1 ug protein in 20 ul, 20 min on ice; 6% PAGE in 1x TBE at ….
OsWRKY53SD S43D;S72D;S77D;S89D;S96D;S108D (Oryza sativa (rice)), sequence (A7BEY7 entry or part of it S43D S72D S77D S89D S96D S108D): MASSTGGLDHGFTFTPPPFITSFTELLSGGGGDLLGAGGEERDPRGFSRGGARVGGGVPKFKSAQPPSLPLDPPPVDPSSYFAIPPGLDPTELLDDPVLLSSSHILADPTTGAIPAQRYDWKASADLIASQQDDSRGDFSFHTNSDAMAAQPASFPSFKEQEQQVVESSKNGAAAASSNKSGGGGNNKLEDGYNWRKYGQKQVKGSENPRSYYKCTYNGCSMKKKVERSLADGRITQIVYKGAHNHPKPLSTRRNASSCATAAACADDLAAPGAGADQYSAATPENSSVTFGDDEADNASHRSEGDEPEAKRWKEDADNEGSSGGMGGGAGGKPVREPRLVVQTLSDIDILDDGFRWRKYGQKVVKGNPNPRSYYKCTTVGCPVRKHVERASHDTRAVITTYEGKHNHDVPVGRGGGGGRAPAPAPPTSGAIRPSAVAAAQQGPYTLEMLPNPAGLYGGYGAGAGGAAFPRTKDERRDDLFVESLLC

OsWRKY53SA S43A;S72A;S77A;S89A;S96A;S108A (Oryza sativa (rice)), sequence (A7BEY7 entry or part of it S43A S72A S77A S89A S96A S108A): as the sequence (A7BEY7 entry or part of it S43D S72D S77D S89D S96D S108D) above, with D43A, D72A, D77A, D89A, D96A, D108A counted along it

Take “TTTGGGGATGCTTCGGCGAAGGGGGTGAGGTCAAAGCTCGTGCGGTTTGACCGGTCAGACGAGGCGGCTGAGGCTCGCGC (double strand) [W-box probe (W)]”: the binding entry in data set [1] and in data set [2] was “binds” each time.
